B1: ANKRD17 (parent)
chain: EMVRFLLEAGADQEHKTDEMHTAL
B2: VAMP4 (parent)
chain: IMALVAAILLLVIIILIVMKYRT

Variants of: B1
Assay: protein stability index of a GFP-peptide fusion (GPS, HEK-293T) (PSI 1-6); higher = more stable
Conditions: c terminus: a fixed tail appended
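Also: lentivirally expressed fusions sorted by FACS into six bins by GFP to DsRed ratio, PSI derived from sequencing read proportions per bin multiplied by bin number.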

Protein stability index: each site, then its substitutions
L7: W 3.26
M20: F 2.75; L 3.13
L24: D 4.06
D18: P 2.35; A 2.31
G10: V 2.07
R4: E 3.47; L 2.35
H21: C 3.21; F 2.19
E8: C 2.14
A23: V 2.6

Variants of: B2
Assay: as above
Conditions: c terminus: native

Protein stability index: each site, then its substitutions
L9: H 2.52; G 3.48; K 2.5; N 2.4; V 3.3; Q 2.29; M 3.74; Y 2.12; R 1.95; F 3.56; E 1.96; C 3.33; A 2.92; D 2.68; P 2.43; I 3.36; S 3.05; W 2.76; T 3.08
I17: V 3.11; F 2.58; L 2.96; G 2.83; E 2.57; D 1.74; M 3.45; H 1.85; T 3.26; R 2.33; C 3.11; A 3.54; P 2.77; N 2.79; K 2.9; Q 2.31; S 3.07
A7: K 3.15; E 1.62; M 3.09; R 3.36; P 2.75; V 3.45; L 3.58; N 2.02; H 1.84; T 3.4; S 3.81; D 2.37; G 3.51; I 3.42; W 3.03; Q 1.91; F 3.74; Y 2.94; C 3.29
I1: T 3.53; W 3.51; D 2.5; S 3.02; C 3.16; E 2.77; Y 3.52; V 3.38; H 3.39; G 3.11; R 3.06; K 3.29; L 3.49; M 3.56; F 3.39; P 3.56; A 3.25; N 2.69; Q 3.45
I13: D 1.4; W 3.63; R 3.08; M 3.97; T 3.82; S 3.36; N 3.58; V 2.8; Q 2.86; C 3.25; P 2.66; G 3.21; E 1.77; A 3.86; K 1.98; H 2.94; L 3.81; F 3.46; Y 3.22
M2: V 2.72; E 2.4; N 1.93; A 2.73; F 3.53; S 3.18; I 3.15; R 3.53; T 2.81; W 3.66; Y 3.22; D 2.98; Q 2.96; K 2.98; P 3.28; G 2.98; C 3.25; H 2.4; L 3.03
A6: F 3.75; Q 2.37; T 3.43; G 3.2; L 3.39; I 3.61; Y 2.06; P 2.54; N 2.1; W 2.02; S 3.71; H 2.06; C 3.2; M 3.34; K 2.68; R 2.47; E 2.3; V 3.23; D 2.8
A3: F 3.55; H 2.85; P 2.9; T 3.17; E 2.2; L 3.65; G 3.17; W 3.47; K 3.28; C 3.34; V 3.59; R 3.58; D 1.33; S 2.86; I 3.5; Q 3.28; N 2.46; M 3.72; Y 3.55
I8: P 2.85; G 3.37; N 2.48; W 2.47; E 2.68; A 3.34; L 3.28; Q 2.01; F 3.4; H 2.14; S 3.25; K 2.72; R 2.72; M 3.69; D 3.13; Y 2.26; V 3.04; C 3.01; T 3.25
V5: S 2.96; I 2.97; L 3.23; W 3.4; Y 3.72; N 1.84; M 3.81; T 3.31; D 2.77; R 2.73; Q 1.83; C 3.37; P 2.36; H 2.13; K 2.1; A 3.36; F 3.17; G 3.37; E 2.42
L4: A 3.08; C 3.07; E 1.57; F 3.69; W 3.59; P 2.83; N 1.79; M 3.29; T 3.19; I 3.33; H 2.36; G 3.32; V 3.14; D 2.9; Y 2.76; S 3.29; K 2.78; R 3.42; Q 2.19
I15: G 2.98; P 3.92; S 2.65; E 2.43; T 3.08; N 1.95; W 1.84; R 1.9; Y 2.26; Q 1.89; K 2.04; H 1.69; L 3.26; M 2.88; F 2.79; C 3.51; D 2; V 3.25; A 3.05
L16: K 2.73; G 3.18; M 2.39; N 2.73; W 3.28; I 3.44; Y 3.25; F 3.6; P 3.2; V 3.35; H 3.18; A 3.57; R 2.33; S 3.5; C 3.65; D 2.44; T 3.47; E 3.2; Q 3.13
I14: S 3.02; L 3.19; V 3.25; P 3.1; A 3.33; T 3.25; N 2.17; E 2.02; Q 2.23; G 3.44; Y 3.26; M 3.09; H 1.92; K 1.92; D 1.5; R 2.56; F 3.48; W 2.71; C 3.36
V12: D 1.65; S 3.17; F 3.47; R 2.49; Y 2.47; H 2.3; P 2.62; L 3.23; G 3.32; T 3.16; I 3.64; E 1.6; A 3.62; W 2.65; N 2.48; K 2.06; Q 2.54; C 2.97; M 3.03
L11: Y 2.68; H 2.71; I 3.33; V 3.46; Q 2.6; S 3.39; C 3.27; E 2.27; A 3.51; D 2.28; T 3.56; F 3.58; P 3.43; K 2.61; R 2.98; W 2.84; N 2.25; G 3.71; M 3.33
L10: V 3.53; K 1.97; N 2.48; E 1.79; T 2.87; P 1.95; Y 2.03; M 3.35; D 3.06; I 3.35; R 3.16; C 2.84; H 2.46; F 3.43; G 2.73; W 2.78; A 2.87; Q 2.67; S 2.86

From the supplement of paper PMC10567573
